Laboratory results from article PMC7948760.
Read-outs that look alike come from different tables or passages of the source.

Legend:
[1] = molecular target: OG488-TFPIα-BR, TFPIα-BR modified with Oregon Green488 maleimide (human); assay: fluorescence polarisation; steady-state anisotropy; FV species (0–100 nM) titrated into 20 nM OG488-TFPIα-BR and 50 μM PCPS, assay buffer (20 mM HEPES, 0.15 M NaCl, 5 mM CaCl2, 0.1% PEG 8000, pH 7.4), 25 °C; fit to independent, noninteracting sites
[2] = molecular target: FV-short-QQ (FV-short with Arg709 and Arg1545 replaced with Gln) (human); assay: fluorescence polarisation; competition: unlabeled TFPIα-BR (0–2 μM) or TFPIα (0–1 μM) titrated into 25 nM OG488-TFPIα-BR, 20 nM FV-short-QQ and 50 μM PCPS, assay buffer, 25 °C; stoichiometry of 1 assumed
[3] = molecular target: FV-short (factor V isoform with B-domain residues 756 to 1458 deleted) (human); assay: inhibition of prothrombinase (prothrombin activation assay); 0.1 nM cofactor species, 50 μM PCPS, 1.4 μM prothrombin, 3 μM DAPA, TFPIα 0–500 nM with a twofold excess of anti-K2 antibody to block FXa inhibition, started with 2 nM FXa, assay buffer, 25 °C; Ki from the equation for competitive inhibition
[4] = molecular target: FV-short-QQ (FV-short with Arg709 and Arg1545 replaced with Gln) (human); assay: as above
[5] = molecular target: FV-short-RQ∗ (FV-short-RQ precleaved at Arg709 with thrombin) (human) (UniProt P12259); assay: as above
[6] = molecular target: activated factor V (FVa) (human) (UniProt P12259); assay: as above
[7] = molecular target: FV-short-QR∗ (FV-short-QR precleaved at Arg1545 with RVV-V) (human) (UniProt P12259); assay: as above
[8] = molecular target: FV-short (factor V isoform with B-domain residues 756 to 1458 deleted) (human); assay: as above; remark: listed apart in the source
[9] = molecular target: FV-short-QQ (FV-short with Arg709 and Arg1545 replaced with Gln) (human); assay: as above; remark: listed apart in the source
[10] = molecular target: FV-short-RQ∗ (FV-short-RQ precleaved at Arg709 with thrombin) (human) (UniProt P12259); assay: as above; remark: listed apart in the source
TFPIα (Homo sapiens) = TFPIα (Homo sapiens) (UniProt P10646); assay: SPR; conditions: cited from earlier work
Chain of TFPIα (Homo sapiens) (P10646 29-304): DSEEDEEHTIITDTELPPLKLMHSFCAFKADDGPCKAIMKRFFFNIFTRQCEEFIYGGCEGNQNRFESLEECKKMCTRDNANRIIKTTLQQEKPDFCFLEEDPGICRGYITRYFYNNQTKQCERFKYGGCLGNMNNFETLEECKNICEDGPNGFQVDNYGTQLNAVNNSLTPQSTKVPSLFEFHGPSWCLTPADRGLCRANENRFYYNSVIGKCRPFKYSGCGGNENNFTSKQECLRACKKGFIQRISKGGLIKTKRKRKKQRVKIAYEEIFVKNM

Chain of FV-short-RQ∗ (FV-short-RQ precleaved at Arg709 with thrombin) (human) (P12259 29-737, chain 1 of 2): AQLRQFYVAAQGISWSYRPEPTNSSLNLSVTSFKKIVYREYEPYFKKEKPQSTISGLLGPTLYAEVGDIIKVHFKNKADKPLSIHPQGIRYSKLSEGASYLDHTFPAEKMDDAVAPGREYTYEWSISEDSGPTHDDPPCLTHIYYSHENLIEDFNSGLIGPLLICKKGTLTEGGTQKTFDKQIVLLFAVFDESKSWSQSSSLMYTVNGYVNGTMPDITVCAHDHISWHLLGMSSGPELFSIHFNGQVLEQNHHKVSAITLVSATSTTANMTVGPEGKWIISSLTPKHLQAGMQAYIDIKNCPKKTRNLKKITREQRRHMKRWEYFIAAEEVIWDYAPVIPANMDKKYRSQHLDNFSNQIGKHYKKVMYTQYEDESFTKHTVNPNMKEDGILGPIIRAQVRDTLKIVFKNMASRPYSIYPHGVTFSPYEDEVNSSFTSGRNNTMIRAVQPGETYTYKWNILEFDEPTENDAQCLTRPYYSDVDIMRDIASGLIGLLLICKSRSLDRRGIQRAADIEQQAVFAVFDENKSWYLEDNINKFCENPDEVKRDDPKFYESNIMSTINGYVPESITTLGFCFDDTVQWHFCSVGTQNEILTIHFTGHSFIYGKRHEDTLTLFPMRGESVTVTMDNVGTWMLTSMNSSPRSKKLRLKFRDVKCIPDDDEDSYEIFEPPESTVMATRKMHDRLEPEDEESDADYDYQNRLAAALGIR
Chain of FV-short-RQ∗ (FV-short-RQ precleaved at Arg709 with thrombin) (human) (P12259 other isoform, or with tags, fused parts or gaps, chain 2 of 2): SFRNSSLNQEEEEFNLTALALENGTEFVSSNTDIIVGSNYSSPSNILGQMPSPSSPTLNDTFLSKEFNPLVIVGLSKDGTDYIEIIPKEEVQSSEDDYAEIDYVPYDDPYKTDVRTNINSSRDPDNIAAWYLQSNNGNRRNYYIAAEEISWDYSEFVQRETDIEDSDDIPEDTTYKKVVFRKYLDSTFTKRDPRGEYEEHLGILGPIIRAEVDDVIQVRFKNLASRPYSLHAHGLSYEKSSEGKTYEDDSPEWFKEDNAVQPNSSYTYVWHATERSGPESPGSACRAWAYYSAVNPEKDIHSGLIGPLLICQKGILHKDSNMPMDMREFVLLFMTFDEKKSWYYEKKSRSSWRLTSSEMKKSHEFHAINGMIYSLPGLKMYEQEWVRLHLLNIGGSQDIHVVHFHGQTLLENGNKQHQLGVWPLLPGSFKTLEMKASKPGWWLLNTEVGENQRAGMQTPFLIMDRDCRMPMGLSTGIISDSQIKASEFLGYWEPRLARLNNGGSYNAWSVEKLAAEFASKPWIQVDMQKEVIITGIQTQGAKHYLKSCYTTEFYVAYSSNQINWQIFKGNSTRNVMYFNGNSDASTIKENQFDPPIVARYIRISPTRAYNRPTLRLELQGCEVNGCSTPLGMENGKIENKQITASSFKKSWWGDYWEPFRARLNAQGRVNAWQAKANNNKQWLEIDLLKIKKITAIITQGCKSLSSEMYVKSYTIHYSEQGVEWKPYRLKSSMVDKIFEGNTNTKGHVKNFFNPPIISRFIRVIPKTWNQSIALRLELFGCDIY
Chain of activated factor V (FVa) (human) (P12259 29-737, chain 1 of 2): as the sequence (P12259 29-737, chain 1 of 2) above
Chain of activated factor V (FVa) (human) (P12259 1574-2224, chain 2 of 2): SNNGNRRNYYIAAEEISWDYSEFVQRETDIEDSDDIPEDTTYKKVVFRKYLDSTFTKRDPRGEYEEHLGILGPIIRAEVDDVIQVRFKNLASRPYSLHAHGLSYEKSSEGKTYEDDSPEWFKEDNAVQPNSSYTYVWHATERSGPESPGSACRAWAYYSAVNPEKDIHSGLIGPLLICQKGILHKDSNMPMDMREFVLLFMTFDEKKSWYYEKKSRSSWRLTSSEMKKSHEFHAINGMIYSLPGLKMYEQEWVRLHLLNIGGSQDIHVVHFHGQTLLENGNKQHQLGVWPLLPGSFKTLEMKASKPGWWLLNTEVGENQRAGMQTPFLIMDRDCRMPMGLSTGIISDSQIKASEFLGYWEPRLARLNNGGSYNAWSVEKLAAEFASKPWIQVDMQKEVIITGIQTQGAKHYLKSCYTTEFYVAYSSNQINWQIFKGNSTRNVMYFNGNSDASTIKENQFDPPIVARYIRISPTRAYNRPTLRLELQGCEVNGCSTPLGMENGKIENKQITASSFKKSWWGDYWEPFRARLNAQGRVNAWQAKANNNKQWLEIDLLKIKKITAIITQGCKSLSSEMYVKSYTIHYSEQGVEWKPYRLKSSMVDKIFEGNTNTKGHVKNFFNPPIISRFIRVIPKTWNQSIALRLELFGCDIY
Chain of factor V (P12259 1574-2224): as the sequence (P12259 1574-2224, chain 2 of 2) above
Chain of FV-short-QR∗ (FV-short-QR precleaved at Arg1545 with RVV-V) (human) (P12259 other isoform, or with tags, fused parts or gaps, chain 1 of 2): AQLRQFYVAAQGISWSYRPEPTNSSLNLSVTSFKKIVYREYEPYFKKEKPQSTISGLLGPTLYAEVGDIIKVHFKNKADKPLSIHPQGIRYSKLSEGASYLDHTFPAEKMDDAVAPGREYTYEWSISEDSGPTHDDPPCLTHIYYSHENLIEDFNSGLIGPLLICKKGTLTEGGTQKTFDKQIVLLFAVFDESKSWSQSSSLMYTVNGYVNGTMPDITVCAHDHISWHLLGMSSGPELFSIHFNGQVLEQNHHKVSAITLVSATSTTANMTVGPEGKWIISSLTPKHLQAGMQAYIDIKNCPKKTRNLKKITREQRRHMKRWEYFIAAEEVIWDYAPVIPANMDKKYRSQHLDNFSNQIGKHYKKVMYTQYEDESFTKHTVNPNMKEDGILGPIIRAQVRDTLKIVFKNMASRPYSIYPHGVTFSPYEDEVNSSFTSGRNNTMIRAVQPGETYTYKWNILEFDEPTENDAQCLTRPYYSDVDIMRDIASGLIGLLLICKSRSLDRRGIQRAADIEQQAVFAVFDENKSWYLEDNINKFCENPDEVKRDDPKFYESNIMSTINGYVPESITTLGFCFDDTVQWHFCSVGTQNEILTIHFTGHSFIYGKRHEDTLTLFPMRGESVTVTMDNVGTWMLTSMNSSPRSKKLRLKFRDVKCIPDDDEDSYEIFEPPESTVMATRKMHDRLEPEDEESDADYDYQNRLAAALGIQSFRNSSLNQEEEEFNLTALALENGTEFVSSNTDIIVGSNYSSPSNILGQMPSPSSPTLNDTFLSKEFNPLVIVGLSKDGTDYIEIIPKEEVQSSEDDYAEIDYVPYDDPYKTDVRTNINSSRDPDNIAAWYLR
Chain of FV-short-QR∗ (FV-short-QR precleaved at Arg1545 with RVV-V) (human) (P12259 1574-2224, chain 2 of 2): as the sequence (P12259 1574-2224, chain 2 of 2) above

## FV-short (factor V isoform with B-domain residues 756 to 1458 deleted) (natural protein)
[1]
  stoichiometry N: 1.25

## tissue factor pathway inhibitor alpha (TFPIα), full-length (from UniProt P10646-1 29-304) (natural protein)
[2]
  Kd: 0.73 nM
[3]
  Ki: 0.23 nM
[4]
  Ki: 0.11 nM
[5]
  Ki: 0.24 nM
[6]
  Ki: > 500 nM
[7]
  Ki: > 500 nM
[8]
  Ki: 0.14 nM
[9]
  Ki: 0.1 nM
[10]
  Ki: 0.26 nM

## factor V (from UniProt P12259)
TFPIα (Homo sapiens)
  Kd: 13 nM
